Data: patent publication US20030147883A1 (US Dept. of Health and Human Services, published 2003)

Biological target: T1, chemokine receptor CCR5 (human, UniProt P51681 1-352)
T1 construct: whole, on cells
Assay: ^125I-MIP-1β binding to human monocytes, displacement by unlabeled MIP-1β
Protocol: After incubation, the cells were washed with DPBS and centrifuged through a 10% sucrose/DPBS cushion. The tips of tubes containing cell pellets were cut and the cell-associated radioactivity was determined in a gamma counter. The results were presented as counts per minute (cpm) on 2×10⁶ monocyte and were representative of at least three experiments performed.

T1 sequence (P51681 whole entry): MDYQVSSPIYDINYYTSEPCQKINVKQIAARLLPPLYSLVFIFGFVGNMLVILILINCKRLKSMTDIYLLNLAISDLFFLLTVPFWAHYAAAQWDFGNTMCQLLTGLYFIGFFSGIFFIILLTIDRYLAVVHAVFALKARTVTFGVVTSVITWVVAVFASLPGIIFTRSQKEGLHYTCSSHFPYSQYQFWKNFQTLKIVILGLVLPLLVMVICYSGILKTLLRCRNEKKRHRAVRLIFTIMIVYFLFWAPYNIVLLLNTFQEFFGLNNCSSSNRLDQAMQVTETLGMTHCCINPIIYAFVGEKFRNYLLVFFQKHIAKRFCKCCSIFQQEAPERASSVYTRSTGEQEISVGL

B1: MIP-1β (ligand, human, UniProt P13236 24-92, looked up)
chain: APMGSDPPTACCFSYTARKLPRNFVVDYYETSSLCSQPAVVFQTKRSKQVCADPSESWVQEYVYDLELN
notes: also called MIP-1beta
binding result: binds
